Test results as given in patent US20240117073A1, “METHODS OF TREATING NEOPLASTIC ASTROCYTOMA” (Ludwig Institute for Cancer Research Ltd., priority 2009, published 2024).
Where “and” joins values, the source holds several entries; their conditions need not be identical. Equal values may be shown once.

Assays:
[1] = tested on: U87MG.DK cells; test: FACS binding to cell lines; format: cell-based, human
Description: Stained cells were analyzed with a FACS Calibur™ using Cell Quest™ software (Becton-Dickinson PharMingen). […] 1. Mouse IgG2a or IgG2b was used as an isotype control.

[2] = tested on: A431 cells; test: FACS binding to cell lines; format: cell-based, human
Description: FACS data was obtained on a Coulter Epics Elite ESP by observing a minimum of 5,000 events and analyzed using EXPO (version 2) for Windows.
As described previously, A431 cells are human squamous carcinoma cells and express high levels of wtEGFR.
The estimates of antibody concentration determined for each sample by the OD Δ280 nm were utilised for FACS analyses with the adenocarcinoma cell line A431 cells (containing EGFR gene amplification). […] Control for secondary antibody alone was also included [Goat anti hu-IgG (Fc specific) FITC conjugated].

[3] = tested on: MDA-468 breast cancer cell line; test: FACS binding to cell lines; format: cell-based, human
[4] = molecular target: T1, sEGFR (recombinant extracellular domain, amino acids 1-621, of the wild-type EGFR) (Homo sapiens, UniProt P00533); test: ELISA on sEGFR coated plates; format: binding
T1 construct: sEGFR is the recombinant extracellular domain (amino acids 1-621) of the wild-type EGFR; host or cells: CHO cells
Description: Two types of ELISA were used to determine the specificity of the antibodies. […] Growth Factors. 18, 11-29). Antibodies were added to wells in triplicate at increasing concentration in 2% HSA in phosphate-buffered saline (PBS).

[5] = molecular target: T2, sEGFR (Homo sapiens, UniProt P00533); test: BIAcore, immobilized sEGFR; format: binding
T2 construct: sEGFR is the recombinant extracellular domain (amino acids 1-621) of the wild-type EGFR; host or cells: CHO cells
Description: In a second set of BIAcore™ experiments, sEGFR was immobilized on a CM microsensor chip at a surface density of ˜4000RU. Serial dilutions of mAbs were tested for reactivity with sEGFR.

[6] = tested on: A431 xenografts; test: established xenograft model; format: in vivo, nude mice; conditions: day 13; 1 mg injection
Description: Tumor cells (3×10^6) in […] of PBS were inoculated subcutaneously into both flanks of 4-6 week old female nude mice (Animal Research Centre, Western Australia, Australia). […] Treatment was continued for a total of 6 doses, 3 times per week for 2 weeks. In the established model, treatment was started when tumors had reached a mean volume of 65±6.42 mm^3 (U87MG.Δ2-7), 84±9.07 mm^3 (U87MG), 73±7.5 mm^3 (U87MG.wtEGFR) or 201±19.09 mm^3 (A431 tumors). Tumor volume in mm^3 was determined using the formula (length×width^2)/2, where length was the longest axis and width the measurement at right angles to the length (Clark et al. (2000) Therapeutic efficacy of anti-Lewis (y) humanized 3S 193 radioimmunotherapy in a breast cancer model: enhanced activity when combined with Taxol chemotherapy. Clin. Cancer Res. 6, 3621-3628). Data was expressed as mean tumor volume±S.E. for each treatment group. Statistical analysis was performed at given time points using Student's t-test. Animals were euthanized when the xenografts reached an approximate volume of 1.5 cm^3 and the tumors excised for histological examination. This research project was approved by the Animal Ethics Committee of the Austin and Repatriation Medical Centre.
At day 13, when control animals were sacrificed, the mean tumor volume was 1142±120.06 mm^3 for the control group and 451±65.58 mm^3 for the 1 mg injection group (p<0.0001).

[7] = tested on: U87MG brain xenografts; test: systemic treatment of intracranial xenografts; set-up: species or system nude mice; conditions: mouse, in vivo
Description: U87MG.ΔEGFR cells (1×10^5) or 5×10^5 LN-Z308.ΔEGFR, A1207.ΔEGFR, U87MG, U87MG.DK, and U87MG.wtEGFR cells in 5 μl of PBS were implanted into the right corpus stratum of nude mice brains as described previously (Mishima et al. (2000) A peptide derived from the non-receptor binding region of urokinase plasminogen activator inhibits glioblastoma growth and angiogenesis in vivo in combination with cisplatin. Proc. Natl. Acad. Sci. U.S.A. 97, 8484-8489).

[8] = tested on: A431 xenografts; conditions: mouse, in vivo
Description: U87MG or A431 cells were injected on one side 7-10 days before U87MG.Δ2-7 cells were injected on the other side because of the faster growth rate observed for de2-7 EGFR expressing xenografts. Antibodies were radiolabeled and assessed for immunoreactivity as described above and were injected into mice by the retro-orbital route when tumors were 100-200 mg in weight. […] Unless indicated, groups of 5 mice were sacrificed at various time points post-injection and blood obtained by cardiac puncture. The tumors, liver, spleen, kidneys and lungs were obtained by dissection. All tissues were weighed and assayed for ^125I and ^131I activity using a dual-channel counting Window. Data was expressed for each antibody as % ID/g tumor determined by comparison to injected dose standards or converted into tumor to blood/liver ratios (i.e. % ID/g tumor divided by % ID/g blood or liver). Differences between groups were analyzed by Student's t-test.

B1: mAb806: murine monoclonal antibody recognizing de2-7 EGFR and amplified EGFR; VH SEQ ID NO:2, VL SEQ ID NO:4 (antibody, listed as Mus musculus, V domains shown)
VH: MRVLILLWLFTAFPGVLSDVQLQESGPSLVKPSQSLSLTCTVTGYSITSDFAWNWIRQFPGNKLEWMGYISYSGNTRYNPSLKSRISITRDTSKNQFFLQLNSVTIEDTATYYCVTAGRGFPYWGQGTLVTVSA
VL: MVSTAQFLAFLLLWFPGARCDILMTQSPSSMSVSLGDTVSITCHSSQDINSNIGWLQQRPGKSFKGLIYHGTNLDDEVPSRFSGSGSGADYSLTISSLESEDFADYYCVQYAQFPWTFGGGTKLEIKR
FACS staining [1]: reacted intensely
FACS staining [2]: Low, but highly reproducible, binding
FACS staining [3]: clearly stained both cell lines but at a lower level
inhibition of antibody binding to immobilized sEGFR by sEGFR in solution [4]: unable to inhibit
binding to immobilized wild-type sEGFR ([4]; DH8.3 up to 10 μg/ml): dose-dependent and saturating binding curves
inhibition of antibody binding to immobilized sEGFR by denatured sEGFR in solution ([4]; sEGFR heated 10 min at 95° C.): able to inhibit
reactivity with denaturated sEGFR [5]: strongly reactive
mean tumor volume [6]: 451±65.58 mm^3 and 450±70 mm^3
effect on survival [7]: did not extend survival
uptake expressed as % ID/g tumor [8]: comparatively low
